According to patent US20160347807A1, “TARGETING P53 AND ITS DNA-BINDING DOMAIN” (UNIVERSITY OF UTAH RESEARCH DOUNDATION, priority 2014, published 2016):
“Also recorded” adds a separate entry of the source.

Key:
Format in all cases: cell-based, human
T47D cells [1] = assay: 7-AAD assay in T47D cells; settings: 48 h after transfection, EGFP positive cells only
Procedure: (§1) Transfected T47D, MCF-7, MDA-MB-231, HeLa and H1373 cells were pelleted and resuspended in 500 μL PBS (Invitrogen) containing 1 μM 7-aminoactinomycin D (7-AAD) (Invitrogen) for 30 min prior to analysis following the recommended protocol from the manufacturer. The assay was performed 48 h after transfection for T47D, MCF-7 and H1373 and 24 h after transfection for MDA-MB-231 and HeLa. Only EGFP positive cells were analyzed by using the FACS Canto-II (BD-BioSciences) with FACS Diva software. EGFP and 7-AAD were excited with the 488 nm laser, and were detected at 507 nm and 660 nm, respectively. Independent transfections of each construct were tested three times (n=3).
(§2) Transfected T47D, H1373, SKOV-3 and HeLa cells were pelleted and re-suspended in 500 μL PBS (Invitrogen) containing 1 μM 7-aminoactinomycin D (7-AAD) (Invitrogen) for 30 min prior to analysis. T47D and H1373 cells were analyzed 48 h after transfection, while SKOV-3 and HeLa cells were analyzed 24 h after transfection (time points optimized empirically). Only EGFP positive cells were assayed using the FACS Canto-II (BD-BioSciences) with FACS Diva software as previously. EGFP and 7-AAD were excited at 488 nm, and detected at 507 nm and 660 nm, respectively. Independent transfections of each construct were assayed three times (n=3). The highest value (EGFP positive cells stained with 7-AAD) was set at 100%, and the lowest at 0% (relative 7-AAD) as previously.

HeLa cells = assay: 7-AAD assay in HeLa cells; settings: 24 h after transfection
Procedure: as §1, §2

H1373 cells = assay: 7-AAD assay in H1373 cells; settings: H1373 (p53 null), 48 h after transfection
Procedure: as §1, §2

SKOV-3 cells = assay: 7-AAD assay in SKOV-3 cells
Procedure: as §2

T47D cells [2] = assay: Annexin V assay in T47D cells; settings: 48 h after transfection
Procedure: 48 h after transfection, T47D cells were pelleted and resuspended in 400 μL of annexin-V binding buffer (Invitrogen) and incubated with 5 μL of annexin-APC (annexin-V conjugated to allophycocyanin, Invitrogen) for 15 min as before. Only transfected cells were analyzed as mentioned in 7-AAD assay. EGFP and APC were excited at 488 nm and 635 nm wavelengths, respectively and detected at their corresponding 507 nm and 660 nm wavelengths. Independent transfections of each construct were tested three times (n=3).

T47D cells [3] = assay: TUNEL assay in T47D cells; settings: 48 h after transfection
Procedure: T47D cells were harvested 48 h after transfection. In situ Death Detection Kit, TMR red (Roche, Mannheim, Germany) was used following manufacturer's recommendations as before. Cells were resuspended in PBS (Invitrogen) and analyzed via the FACSAria-II (BD-Biosciences, University of Utah Core Facility). EGFP and TMR red were excited at 488 nm and 563 nm, respectively, and FACSDiva software was used to analyze the data. Independent transfections of each construct were tested three times (n=3).

T47D cells [4] = assay: Rescue experiment using BFP-Bcl-XL (7-AAD) in T47D cells; settings: 48 h after transfection, Bcl-XL overexpression
Procedure: T47D cells were co-transfected with 1 pmol of EGFP constructs and 1 pmol of BFP-Bcl-XL (BFP tag is necessary for gating Bcl-XL transfected cells). 48 h after transfection the 7-AAD assay was performed as described above. FACSCanto-II (BD-BioSciences) and FACSDiva software were used for EGFP and BFP gating. Excitation was set at 488 nm, and detected at 507 nm and 660 nm for EGFP and 7-AAD, respectively. BFP was excited at 405 nm and detected at 457 nm. Independent transfections of each construct were tested three times (n=3).

Molecule: p53m6-BakMTS: p53-BakMTS with K120A, R248A, R273A, R280A, E285A, E287A mutations
- 7-AAD positive cells (late apoptosis) (T47D cells [1]): not significantly different from their negative control; also recorded: complete loss in apoptotic activity compared to their non-mutated controls

Molecule: p53ΔC-XL: EGFP, p53ΔC (amino acids 1-322, lacks the C-terminus) and XL MTS
- 7-AAD positive cells (late apoptosis) (T47D cells [1]): statistically higher than the negative control E-XL; also recorded: not statistically significant from each other

Molecule: DBDK120E-BakMTS: DBD-BakMTS with K120E mutation
- 7-AAD positive cells (late apoptosis) (T47D cells [1]): not statistically significant from the negative control E-BakMTS

Molecule: DBD-BakMTS: DBD of p53 cloned between EGFP and Bak MTS
- 7-AAD positive cells (late apoptosis) (T47D cells [1]): significantly higher apoptosis compared to cells transfected with MTS negative controls; also recorded: trending higher; also recorded: induces robust apoptosis, similar to, or greater than wt p53 with MTS; also recorded: outperformed DBD-BaxMTS; also recorded: induces apoptosis in all 3 cell lines
- 7-AAD positive cells (late apoptosis) (HeLa cells): significant from their corresponding negative controls; also recorded: trend of higher apoptotic activity in HeLa cells compared to p53-BakMTS; also recorded: induces robust apoptosis, similar to, or greater than wt p53 with MTS; also recorded: outperformed DBD-BaxMTS; also recorded: induces apoptosis in all 3 cell lines
- 7-AAD positive cells (late apoptosis) (H1373 cells): statistically higher from their negative control E-BakMTS; also recorded: significantly higher activities compared to their positive controls; also recorded: induces robust apoptosis, similar to, or greater than wt p53 with MTS; also recorded: outperformed DBD-BaxMTS; also recorded: induces apoptosis in all 3 cell lines
- 7-AAD positive cells (late apoptosis) (SKOV-3 cells; SKOV-3 (p53 null), 24 h after transfection): significantly higher than their negative control E-BakMTS; also recorded: trending higher; also recorded: induces late stage apoptosis
- apoptosis in SKOV-3 (assay not stated at place) (SKOV-3 cells; ovarian cancer cells SKOV-3): triggers apoptosis

Molecule: p53K120E-BakMTS: p53-BakMTS with K120E mutation
- 7-AAD positive cells (late apoptosis) (T47D cells [1]): not statistically significant from the negative control E-BakMTS

B1: DBDm6-BakMTS: DBD-BakMTS with K120A, R248A, R273A, R280A, E285A, E287A mutations (protein)
chain: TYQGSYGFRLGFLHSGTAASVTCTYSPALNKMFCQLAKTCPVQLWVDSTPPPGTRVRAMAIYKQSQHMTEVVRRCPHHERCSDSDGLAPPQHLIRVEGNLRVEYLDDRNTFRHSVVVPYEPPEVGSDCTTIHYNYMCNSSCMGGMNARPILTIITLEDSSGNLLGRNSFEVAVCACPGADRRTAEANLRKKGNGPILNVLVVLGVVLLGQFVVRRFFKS
modifications: left off: large carriers
notes: DBD-BakMTS with K120A, R248A, R273A, R280A, E285A, E287A mutations
- 7-AAD positive cells (late apoptosis) (T47D cells [1]): not significantly different from their negative control; also recorded: complete loss in apoptotic activity compared to their non-mutated controls

B2: PRD-XL: EGFP, proline-rich domain of p53, XL MTS (protein)
chain: APRMPEAAPPVAPAPAAPTPAAPAPAPSWPLSSSVRKGQERFNRWFLTGMTVAGVVLLGSLFSRK
modifications: left off: large carriers
notes: EGFP, proline-rich domain of p53, XL MTS
- 7-AAD positive cells (late apoptosis) (T47D cells [1]): not statistically significant from the negative control E-XL indicating no apoptotic activity; also recorded: statistically significantly lower than p53-XL
- Annexin V positive cells (apoptotic potential) (T47D cells [2]): not statistically significant from the negative control
- TUNEL positive cells (DNA fragmentation) (T47D cells [3]): not statistically different from the negative control; also recorded: statistically significantly lower than p53-XL
- 7-AAD positive cells (late apoptosis) (HeLa cells): statistically significant from p53-XL
- apoptotic activity (7-AAD) on cotransfection of BFP-Bcl-XL (rescue) (T47D cells [4]): not altered by Bcl-XL overexpression

B3: TD-XL: EGFP, tetramerization domain of p53, XL MTS (protein)
chain: LDGEYFTLQIRGRERFEMFRELNEALELKDAQAGRKGQERFNRWFLTGMTVAGVVLLGSLFSRK
modifications: left off: large carriers
notes: EGFP, tetramerization domain of p53, XL MTS
- 7-AAD positive cells (late apoptosis) (T47D cells [1]): statistically different from the negative controls but is also significantly lower than p53-XL
- Annexin V positive cells (apoptotic potential) (T47D cells [2]): not statistically significant from the negative control
- TUNEL positive cells (DNA fragmentation) (T47D cells [3]): not statistically different from the negative control; also recorded: statistically significantly lower than p53-XL
- apoptotic activity (7-AAD) on cotransfection of BFP-Bcl-XL (rescue) (T47D cells [4]): reduction in apoptotic potential
